From the nanobody polyreactivity screen of Harvey et al. (2022)

Assay: yeast display, Sf9 membrane polyspecificity reagent, FACS + sequencing; frameworks hold sequencing errors
Procedure, shortened: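 Nanobodies came from a synthetic yeast display library in Saccharomyces cerevisiae BJ5465, induced with galactose for 36–48 hours and stained for 1 hour at 4 °C with 10% biotinylated, detergent-solubilized Sf9 membrane reagent. Cells were enriched on streptavidin microbeads and then FACS-sorted, with low and high (top ~1%) gates set on anti-HA fluorescence for expression and streptavidin fluorescence for reagent binding. Each polyreactivity label reflects the gate a clone came from. Genes were amplified by colony PCR, sequenced by MiSeq 2 × 250 and filtered by CDR length.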

Sequence | polyreactivity (PSR sort gate)
QVQLVESGGGLVQAGGSLRLSCAASGLIFDDYDMGWYRQAPGKERELVAAISLSGGSTFYADSVKGRFTISRDNAKNTVYLLMNSLKPEDTAVYYCAAQARRAYVQTRKYYWGQGTQVTVSS | high polyreactivity
QVQLVESGGGLVQAGGSLRLSCAASGSIFGVYTMGWYRQAPGKERELVAAISRNGGSTYYEDSVKGRFTISRDNAKNTVYLQMNSLKPEDTAVYYCATSTSRRYGSRHNYWGQGTQVTVSS | high polyreactivity
QVQLVETGVGLVQAGGSLRLSCAASGRTFTTYAMGWYRQAPGKERELVAAITGSGGSTYYADSVNGRFTISRDNAKNTVYLQMNSLKPEDTAVYDCAKGYHQYAGFYYWGQGTQVTVSS | high polyreactivity
QVQLVESGGGLVQAGGSLRLSCAASGRIFRSNAMGWYRQAPGKERELVATITRSGGSTYYADSVKGRFTISRDNAKNTVYLQMNSLKPEDTAVYYCNAVFGSAYRAQRIMGYWGQGTQVTVSS | high polyreactivity
QVQHVESGGCLVQAGGSRRLSCAASVSIFIPNAMGWSRQAHGKERELVAAISWSGASTYYADSVKRRFTISRDNAKNTVYLQMISLKPEDTAVYYCAAYYAYRRGYDYWGQGTQVTVSS | high polyreactivity
QVQLVESGGGLVQAGGSLRLSCAASGRIFDTNVMGWYRQAPGTEREFVAAIRWNGGSTNYADSVKGRFTISRDNAKNTVYLQMNSLKPEDTAVYYCAADGSIGWRHIYEYWGQATQVTVSS | low polyreactivity
QVQHVESGGGLVQAGGSLRLSCAASGSIISYYAMGWSRQQPGKERELVAAITANGGSTSYADSVKGRFTISRDNAKNTVYLQMNSLKPEVTAVYYCAKESDYPYYVSTKGDYDYWGQGTQVTVSS | low polyreactivity
QVQLVDSGGGLVQAGGSLSLSCAASGRTFYPYAMGWYRQAPGKERELVARISRGGRTNYADSVKGRFTISRDNAKNTVYLQMNSLKPEDTAVYYCAAVYYGSYFITEDYWGQGTQVTVSS | low polyreactivity
HVQHVESGGGLVQAGGSLRLSCAASGLIFGVNAMGWYRQAPGKERELVATITSGTSTYYADSVKGRFTISRDNAKNTVYLQMNSLKPEDNAVSYCAVRNGDSWYYYWGQGTQVTVSS | low polyreactivity
QVQLVESGGGLVQAGGSLRLSCAASGRTFYGYAMGWYRQAPGKERELVASISRDGSTNYADSVKGRFTISRDNAKNTVYLQMNSLKPEDTAVYYCAGDIWYYRYPIYYYSYDYWGQGTQVTVSS | low polyreactivity
QVQLVESGGGLVQAGGSLRLSCAASGSIFNANAMGWYRQAPGKERELVAGIRSGSSTNYADSVKGRFTISRDNAKNTVYFQMNSLKPEDTAVYYCATEGYWVYGFDDEDWGQGTQVTVSS | low polyreactivity
QVQLVESGGGLVQAGGSLRLSCAASGFIFQTNVMGWYRQAPGKERELVAAISSGDSTYYADSVKGRFTISRDNAKNTVYLQMNSLKPEDTAVYYCAADVLGTTTTVGGFNYWGQGTQVTVSS | low polyreactivity
QVQLVESGGGLVQAGGSLRLSCAASGSIFRRYAMGWYRQAPGKERELVATITSTDSTNYADSVKGRFTISRDNAKNTVYLQMNSLKPEDTAVYYCAKRPYHYRRNSEYYYWGQGTQVTVSS | low polyreactivity
QVQLVESGGGLVQAGGSLRLSCAASGRIFDRYAMGWYRQAPGKERELVAVITGGTGNTYYADSVKGRFTISRDNAKNTVYLQMNSLKPEDTAVYYCNARGGYYKFRYPLYYWGQGTQVTVSS | high polyreactivity
QVQLVESGGCLVQAGGSLRLSCAASGRIFYDNVMGLYRQAPGKEREFVAAISRRGGSTDYADSVKGRFTISRDNAKNTVYLQMNSLKPEDTAVYYCADDAPGADFDYWGQGTQVTVSS | low polyreactivity
QVQLVESGGGLVQAGGSLRLSCAASGRIFAYNAMGWYRQAPGKERELVAAITWSGGITYYADSVKGRFTISRDNAKNTVYLQMNSLKPEDTAVYYCNVYVSAGEEDEYWGQGTQVTVSS | low polyreactivity
QVQLVESGGGLVQAGGSLRLSCAASGRIFPQNAMGWYRQAPGKERELVAAITSDGAITYYADSVKGRFTISRDNAKNTVYLQMNSLKPEDTAVYYCATQGRYYDYDYWGQGTQVTVSS | low polyreactivity
